# Source: publication PMC12345223
# T1: ChCpc1;ChAtf1 (Cochliobolus heterostrophus C4 (Tox1+, …, UniProt M2T2C6;M2TIN4 1-465;1-567, |))
# T1 sequence 1: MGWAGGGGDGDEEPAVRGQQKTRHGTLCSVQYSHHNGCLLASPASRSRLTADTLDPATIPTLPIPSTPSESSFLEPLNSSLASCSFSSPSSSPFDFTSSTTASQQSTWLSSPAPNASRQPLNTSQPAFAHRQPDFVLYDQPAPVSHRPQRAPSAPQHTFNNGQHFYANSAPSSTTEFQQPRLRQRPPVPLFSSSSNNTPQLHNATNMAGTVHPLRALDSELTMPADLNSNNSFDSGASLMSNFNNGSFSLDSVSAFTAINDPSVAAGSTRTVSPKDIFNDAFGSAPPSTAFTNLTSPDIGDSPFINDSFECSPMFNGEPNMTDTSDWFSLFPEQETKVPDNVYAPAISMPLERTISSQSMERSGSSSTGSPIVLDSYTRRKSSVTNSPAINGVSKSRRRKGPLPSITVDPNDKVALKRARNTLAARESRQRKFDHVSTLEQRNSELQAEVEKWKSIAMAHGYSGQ
# T1 sequence 2: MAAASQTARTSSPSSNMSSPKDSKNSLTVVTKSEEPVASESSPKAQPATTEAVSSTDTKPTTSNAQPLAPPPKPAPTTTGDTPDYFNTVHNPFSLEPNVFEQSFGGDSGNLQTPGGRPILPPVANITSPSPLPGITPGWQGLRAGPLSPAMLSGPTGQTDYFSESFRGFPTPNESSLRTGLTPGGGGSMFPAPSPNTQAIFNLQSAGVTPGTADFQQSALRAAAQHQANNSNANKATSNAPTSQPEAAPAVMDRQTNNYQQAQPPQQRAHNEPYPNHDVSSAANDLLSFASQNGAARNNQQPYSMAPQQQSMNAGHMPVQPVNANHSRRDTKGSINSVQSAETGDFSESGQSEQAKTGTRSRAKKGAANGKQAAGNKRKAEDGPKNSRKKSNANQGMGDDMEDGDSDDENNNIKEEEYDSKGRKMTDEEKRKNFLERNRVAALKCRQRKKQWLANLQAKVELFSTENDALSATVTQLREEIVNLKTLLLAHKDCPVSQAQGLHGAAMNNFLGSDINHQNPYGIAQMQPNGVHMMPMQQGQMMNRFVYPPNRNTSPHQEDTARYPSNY
# B1: ChARG4 promoter probe (dsDNA)
# DNA 1: CATTGGCGTTTGGGACTGAATTACAATGAGTAATGAAATAACTCACACCACAAAGCAGTA
# DNA 2: TACTGCTTTGTGGTGTGAGTTATTTCATTACTCATTGTAATTCAGTCCCAAACGCCAATG
# B2: ChATG8 promoter probe (dsDNA)
# DNA 1: GGAGAGCGTGAAGGAGAGAGACGGGATGAGTCAAAGTACCCAGGTAGCCAGGTCATGGGA
# DNA 2: TCCCATGACCTGGCTACCTGGGTACTTTGACTCATCCCGTCTCTCTCCTTCACGCTCTCC
# Molecular target: T1, ChCpc1;ChAtf1
# Experiment: EMSA; enhanced versus ChCpc1 alone; Light Shift Chemiluminescent EMSA Kit (Beyotime), 20 min at 25°C; 6.5% polyacrylamide gel, 0.5x TBE; binding buffer, salt and pH not stated
# Details: protein: recombinant;recombinant; tags: His (pET-32a);His (pET32a); copies: 1;1; label: biotin (on forward strand); blunt
row,Binder,binding result
1,B1,binds
2,B2,binds
